The results in this text go back to patent US20250326826A1.

Holding throughout (assay): cell-based or functional assay
In experiment [1] the target is VEGF (soluble stimulus added to cell cultures).
In experiment [2] the target is Human VEGF (dendritic cell assay) (human) (UniProt P15692).
Experiment [3] has as its target bFGF (soluble stimulus added to cell cultures).

Sequence of Human VEGF (dendritic cell assay) (human) (P15692 other isoform, or with tags, fused parts or gaps limits assumed): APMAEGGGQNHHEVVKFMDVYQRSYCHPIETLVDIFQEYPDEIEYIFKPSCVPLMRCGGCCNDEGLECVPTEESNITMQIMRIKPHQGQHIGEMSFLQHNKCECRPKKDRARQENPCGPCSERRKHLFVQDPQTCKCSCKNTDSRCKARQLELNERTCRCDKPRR

Nb-Neg (VHH): in experiment [1], the IC50, proliferation of HDMEC cells +VEGF (5 ng/ml) is greater than 6 µM; the PD1 expression (%) in CD8+ cells treated with VEGF, VHH 1 µg/mL amounted to 68%; the PD1 expression (%) in CD8+ cells treated with VEGF, VHH 5 µg/mL amounted to 67%; the PD1 expression (%) in CD8+ cells treated with VEGF, VHH 10 µg/mL came out at 65%. For the same substance, the average of nodes of the HDMEC network on Matrigel, VEGF 100 ng/mL, VHH 150 nM (nodes per field) in experiment [1] came out at 41. In experiment [2], this substance registered a CD86 (MFI) on dendritic cells +VEGF +LPS, VHH 1 µg/mL of 1980 MFI; a CD86 (MFI) on dendritic cells +VEGF +LPS, VHH 5 µg/mL of 2050 MFI; a CD86 (MFI) on dendritic cells +VEGF +LPS, VHH 10 µg/mL of 2000 MFI; an MHCII (MFI) on dendritic cells +VEGF +LPS, VHH 1 µg/mL of 5210 MFI. In experiment [2], this substance gave an MHCII (MFI) on dendritic cells +VEGF +LPS, VHH 5 µg/mL of 5140 MFI and an MHCII (MFI) on dendritic cells +VEGF +LPS, VHH 10 µg/mL of 4910 MFI. For the same substance, in experiment [3], the IC50, bFGF-induced proliferation of 3T3A31 cells was greater than 250; the IC50, bFGF-induced proliferation of A549 cells was greater than 250; the IC50, bFGF-induced proliferation of B16F10 cells was greater than 250; the IC50, bFGF-induced proliferation of NIH3T3 cells is greater than 250. In experiment [3], this substance showed an IC50, proliferation of HDMEC cells +bFGF (10 ng/ml) greater than 6 µM and an average of nodes of the HDMEC network on Matrigel, bFGF 10 ng/mL, VHH 150 nM (nodes per field) of 40.
